In doi:10.1101/2021.08.28.457928 (bioRxiv, 2021):

B1: SNX1_(35-51) peptide (peptide)
peptide: EAGDSDTEGEDIFTGAA
notes: SNX1, human, residues 35 to 51; also called first aDLF motif of human SNX1; source: synthetic peptide (Genscript)
B2: GST-mSNX1(1-139) (domain or fragment, mouse, UniProt Q9WV80 1-139, looked up)
chain: MASGGGGCSASERLPPPFPGMDPESEGAAGASEPEAGDSDTEGEDIFTGAAAATKPQSPKKTTSLFPIKNGSKENGIHEDQDQEPQDLFADATVELSLDSTQNNQKTMPGKTLTSHSPQEATNSPKPQPSYEELEEEEQ
notes: SNX1, mouse, residues 1 to 139; Vector pGEX4T-2, thrombin-cleavable GST; named GST-mSNX1(1-139) in the ITC; also called N-terminal extension of mouse SNX1; source: E. coli BL21 CodonPlus (DE3), purified (glutathione Sepharose, SEC); not shown: GST, N-terminal, kept
B3: SNX2_(62-82) peptide (peptide)
peptide: TEVVLDDDREDLFAEATEEVS
notes: SNX2, human, residues 62 to 82; also called SNX2 62 to 82; second aDLF motif of SNX2; source: synthetic peptide (Genscript)
B4: isolated FERM domain of human SNX27 (domain or fragment, UniProt Q96L92 269-531, looked up)
chain: YNGVSDVELRVALPDGTTVTVRVKKNSTTDQVYQAIAAKVGMDSTTVNYFALFEVISHSFVRKLAPNEFPHKLYIQNYTSAVPGTCLTIRKWLFTTEEEILLNDNDLAVTYFFHQAVDDVKKGYIKAEEKSYQLQKLYEQRKMVMYLNMLRTCEGYNEIIFPHCACDSRRKGHVITAISITHFKLHACTEEGQLENQVIAFEWDEMQRWDTDEEGMAFCFEYARGEKKPRWVKIFTPYFNYMHECFERVFCELKWRKENIFQM
notes: FERM domain of human SNX27; The AlphaFold2 modelling took the FERM domain as residues 269 to 531; also called hSNX27_(FERM)
B5: SNX1_(75-92) peptide (peptide)
peptide: NGIHEEQDQEPQDLFADA
notes: SNX1, human, residues 75 to 92; also called SNX1 75 to 92; hSNX1_(75-92); source: synthetic peptide (Genscript)
B6: SNX2_(16-33) peptide (peptide)
peptide: TDFEDLEDGEDLFTSTVS
notes: SNX2, human, residues 16 to 33; also called SNX2 16 to 33; first aDLF motif of SNX2; source: synthetic peptide (Genscript)

What was measured:
Conditions in all cases: both partners purified
full-length mouse SNX27 = target: T1, full-length mouse SNX27 (mouse, UniProt Q3UHD6 1-539); test: ITC; 800 μM SNX1 or SNX2 peptide titrated into 20 μM full-length mouse SNX27; 25 °C; 50 mM HEPES pH 7.5, 200 mM NaCl, 5% glycerol, 1 mM β-ME with 1:10 peptide buffer (100 mM Tris-HCl pH 10.6); single-site model
T1 construct: SNX27, mouse, full length; Vector pMCSG7, ligation independent cloning; also called mSNX27FL

[1] = target: B4; test: ITC; 800 μM hSNX27 FERM titrated into 20 μM GST-mSNX1(1-139) or His-SNX1FL; 25 °C; 50 mM HEPES pH 7.5, 200 mM NaCl, 5% glycerol, 1 mM β-ME; single-site model
[2] = target: T2, full-length mouse SNX1 with an N-terminal His-tag (mouse, UniProt Q9WV80 1-522); test: as above
T2 construct: SNX1, mouse, full length; Vector pMW172Kan; also called mSNX1FL; His-SNX1FL; source: E. coli BL21 CodonPlus (DE3), purified (TALON or Ni-NTA, SEC); not shown: His-tag, N-terminal, kept

[3] = target: T3, human SNX27 full length, wild type (human, UniProt Q96L92 1-541); test: ITC; 600 μM SNX1(75-92) peptide titrated into 20 μM hSNX27 wild type or single-site mutant; 25 °C; 50 mM HEPES pH 7.5, 200 mM NaCl, 5% glycerol, 1 mM β-ME; single-site model
T3 construct: SNX27, human, full length; also called hSNX27FL; hSNX27 WT

human SNX27(K496D) = target: T4, human SNX27(K496D) (human, UniProt Q96L92 1-541, K496D); test: as above
T4 construct: SNX27, human, full length; the text prints R496D, the methods and the legend K496D; also called hSNX27 K496D; SNX27(R496D)

Binder	Kd (full-length mouse SNX27)	further results
B1	33.4 µM	–
B2	–	Kd [1]: 39.1 µM
B3	22.6 µM	–
B4	–	Kd [2]: 41 µM
B5	13.3 µM	Kd [3]: 12.7 µM; Kd (human SNX27(K496D)): 56.4 µM
B6	37.8 µM	–
